Test results from PMC7154858, “Transcriptional and Biochemical Characterization of Cytosolic Pyruvate Kinases in Arabidopsis thaliana” (Plants, 2020).

T1: cytosolic pyruvate kinase 2 (cPK2, At5g56350) (Arabidopsis thaliana) (UniProt Q9FM97)
T1 sequence: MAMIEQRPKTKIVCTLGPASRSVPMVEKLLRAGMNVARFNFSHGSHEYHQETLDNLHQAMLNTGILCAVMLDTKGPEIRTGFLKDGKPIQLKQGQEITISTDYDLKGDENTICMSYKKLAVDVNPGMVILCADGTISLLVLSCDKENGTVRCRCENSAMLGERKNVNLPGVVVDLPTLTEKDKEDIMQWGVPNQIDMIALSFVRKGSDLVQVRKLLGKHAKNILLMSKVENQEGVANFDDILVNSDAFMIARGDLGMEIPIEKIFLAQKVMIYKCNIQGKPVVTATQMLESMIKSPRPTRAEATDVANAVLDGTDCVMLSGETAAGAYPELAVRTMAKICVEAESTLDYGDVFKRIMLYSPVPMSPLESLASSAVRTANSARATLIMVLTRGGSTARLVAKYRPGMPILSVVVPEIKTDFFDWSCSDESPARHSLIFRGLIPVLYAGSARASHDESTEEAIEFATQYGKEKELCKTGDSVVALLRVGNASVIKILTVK

T2: cytosolic pyruvate kinase 4 (cPK4, At2g36580) (Arabidopsis thaliana) (UniProt Q9SJQ0)
T2 sequence: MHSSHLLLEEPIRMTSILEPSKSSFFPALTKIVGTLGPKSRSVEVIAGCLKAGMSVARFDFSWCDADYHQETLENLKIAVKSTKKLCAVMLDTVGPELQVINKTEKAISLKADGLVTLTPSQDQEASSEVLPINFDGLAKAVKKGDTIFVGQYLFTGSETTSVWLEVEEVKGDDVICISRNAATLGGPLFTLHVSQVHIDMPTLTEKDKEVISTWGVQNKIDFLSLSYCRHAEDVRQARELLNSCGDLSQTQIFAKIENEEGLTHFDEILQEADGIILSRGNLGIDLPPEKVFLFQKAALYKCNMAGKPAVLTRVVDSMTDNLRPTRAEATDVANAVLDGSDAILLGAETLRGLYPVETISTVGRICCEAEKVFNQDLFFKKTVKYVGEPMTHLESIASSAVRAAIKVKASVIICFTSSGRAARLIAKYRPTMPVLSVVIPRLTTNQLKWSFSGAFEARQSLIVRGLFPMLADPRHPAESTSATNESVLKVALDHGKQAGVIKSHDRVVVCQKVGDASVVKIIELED


Experiments:
[1] = target: T1, cytosolic pyruvate kinase 2 (cPK2, At5g56350) (Arabidopsis thaliana)
[2] = target: T2, cytosolic pyruvate kinase 4 (cPK4, At2g36580) (Arabidopsis thaliana)
[3] = substrate: C=C(OP(=O)(O)O)C(=O)O; test: purified protein; assay type: biochemical, Arabidopsis thaliana; details: co-substrate ADP, 10 mM MgCl2, 50 mM KCl, 5% PEG 200, pH 7.5, 25 °C
[4] = substrate: Nc1ncnc2c1ncn2[C@@H]1O[C@H](COP(=O)(O)OP(=O)(O)O)[C@@H](O)[C@H]1O; test: purified protein; assay type: biochemical, Arabidopsis thaliana; details: co-substrate PEP, 10 mM MgCl2, 50 mM KCl, 5% PEG 200, pH 7.5, 25 °C

| Molecule | Km [3] [µM] | kcat [3] [s⁻¹] | Km [4] [µM] | kcat [4] [s⁻¹] | further results |
| --- | --- | --- | --- | --- | --- |
| cytosolic pyruvate kinase 3 (cPK3) (from UniProt Q9FFP6 1-510) (enzyme) |  |  |  |  | specific pyruvate kinase activity (LDH-coupled assay, substrate saturating conditions) of a mixture of equal ratios of cPK2 and cPK3, compared to the single enzymes [1]: 20 % increase; specific pyruvate kinase activity (LDH-coupled assay, substrate saturating conditions) of a mixture of equal ratios of cPK4 and cPK3, compared to the single enzymes [2]: 20 % increase |
| cPK3 (Arabidopsis thaliana) (protein, printed locus At5g56350 duplicates cPK2 (apparent misprint); primer begins MSNIDIE, unlike cPK2; full-length cDNA in pET16b, N-terminal His tag (6x/5x), E. coli BLR21, Ni-NTA) MSNIDIEGILKELPNDGRTPKTKIVCTLGPASRSVTMIEKLLKAGMNVARFNFSHGSHEYHQETLDNLRTAMQNTGILAAVMLDTKGPEIRTGFLKDGNPIQLKEGQEITITTDYDIKGDEKTISMSYKKLPVDVKPGNTILCADGSISLAVVSCDPNAGTVICRCENTAMLGERKNVNLPGVVVDLPTLTDKDVEDILKWGVPNNIDMIALSFVRKGSDLVNVRKVLGSHSKSIMLMSKVENQEGVLNFDEILRETDAFMVARGDLGMEIPIEKIFLAQKMMIYKCNLAGKPVVTATQMLESMIKSPRPTRAEATDVANAVLDGTDCVMLSGESAAGAYPEIAVKTMAKICIEAESSLDYNTIFKEMIRATPLPMSTLESLASSAVRTANKAKAKLIIVLTRGGTTAKLVAKYRPAVPILSVVVPVFTSDTFNWSCSDESPARHSLIYRGLIPVLGEGSAKATDSESTEEIIESALKSATEKGLCNHGDAVVALHRIGAASVIKICVVK | 170 | 2.4 | 140 | 2.4 |  |
| cytosolic pyruvate kinase 1 (cPK1, At5g08570) (enzyme) MSNIDIEGILKELPNDGRIPKTKIVCTLGPASRTVSMIEKLLKAGMNVARFNFSHGSHEYHQETLDNLRSAMHNTGILAAVMLDTKGPEIRTGFLKDGNPIQLKEGQEITITTDYDIQGDESTISMSYKKLPLDVKPGNTILCADGSISLAVLSCDPESGTVRCRCENSAMLGERKNVNLPGVVVDLPTLTDKDIEDILGWGVPNSIDMIALSFVRKGSDLVNVRKVLGSHAKSIMLMSKVENQEGVINFDEILRETDAFMVARGDLGMEIPIEKIFLAQKLMIYKCNLAGKPVVTATQMLESMIKSPRPTRAEATDVANAVLDGTDCVMLSGESAAGAYPEIAVKVMAKICIEAESSLDYNTIFKEMIRATPLPMSPLESLASSAVRTANKARAKLIIVLTRGGSTANLVAKYRPAVPILSVVVPVMTTDSFDWSCSDESPARHSLIYRGLIPMLAEGSAKATDSEATEVIIEAALKSATQRGLCNRGDAIVALHRIGAASVIKICVVK |  |  |  |  | specific pyruvate kinase activity (LDH-coupled assay, substrate saturating conditions) of a mixture of equal ratios of cPK1 and cPK2, compared to cPK2 alone [1]: 70 % increase; specific pyruvate kinase activity (LDH-coupled assay, substrate saturating conditions) of a mixture of equal ratios of cPK1 and cPK4, normalised to cPK4 alone [2]: 75 % increase |
| cPK1 (Arabidopsis thaliana) (protein, full-length cDNA in pET16b, N-terminal His tag (6x in Results, 5x in Methods), E. coli BLR21, Ni-NTA; primer begins MSNIDIEG) MSNIDIEGILKELPNDGRIPKTKIVCTLGPASRTVSMIEKLLKAGMNVARFNFSHGSHEYHQETLDNLRSAMHNTGILAAVMLDTKGPEIRTGFLKDGNPIQLKEGQEITITTDYDIQGDESTISMSYKKLPLDVKPGNTILCADGSISLAVLSCDPESGTVRCRCENSAMLGERKNVNLPGVVVDLPTLTDKDIEDILGWGVPNSIDMIALSFVRKGSDLVNVRKVLGSHAKSIMLMSKVENQEGVINFDEILRETDAFMVARGDLGMEIPIEKIFLAQKLMIYKCNLAGKPVVTATQMLESMIKSPRPTRAEATDVANAVLDGTDCVMLSGESAAGAYPEIAVKVMAKICIEAESSLDYNTIFKEMIRATPLPMSPLESLASSAVRTANKARAKLIIVLTRGGSTANLVAKYRPAVPILSVVVPVMTTDSFDWSCSDESPARHSLIYRGLIPMLAEGSAKATDSEATEVIIEAALKSATQRGLCNRGDAIVALHRIGAASVIKICVVK | 60 | 1.53 | 150 | 1.53 |  |
| cytosolic pyruvate kinase 5 (cPK5, At3g52990) (enzyme) MHSSHLLLEEPIRMASILEPSKSSFFPALTKIVGTLGPKSRSVEALSGCLKAGMSVARFDFSWGDADYHQETLDNLKVAVRSTKKLCAVMLDTVGPELQVINKSEKAITLKADGLVTLTPNQDQEASSEVLPINFNGLAKAVKKGDTIFVGQYLFTGSETTSVWLEVDEVKGDDVICLSRNAATLAGSLFTLHSSQVHIDLPTLTEKDKEVISTWGVQNKIDFLSLSYCRHAEDVRQTREMLKKLGDLSQTQIFAKIENVEGLTHFDEILQEADGIILSRGNLGIDLPPEKVFLFQKAALYKCNMAGKPAVLTRVVDSMTDNLRPTRAEATDVANAVLDGSDAILLGAETLRGLYPVETISTVGRICAEAEKVFNQDLYFKKTVKYVGEPMTHLESIASSAVRAAIKVKASVIICFTSSGRAARLIAKYRPTMPVISVVIPRVKTNQLKWSFSGAFEARQSLIVRGLFPMLADPRHPAESTSATNESVLKVALDHGKHAGVIKSHDRVVVCQKVGDASVVKIIELED |  |  |  |  | specific pyruvate kinase activity (LDH-coupled assay, substrate saturating conditions) of a batch with equal ratios of cPK4 and cPK5, compared to cPK4 alone [2]: 180 % increase |
| cPK5 (Arabidopsis thaliana) (protein, full-length cDNA in pET16b, N-terminal His tag (6x in Results, 5x in Methods), E. coli BLR21, Ni-NTA; primer begins MHSSHL) MHSSHLLLEEPIRMASILEPSKSSFFPALTKIVGTLGPKSRSVEALSGCLKAGMSVARFDFSWGDADYHQETLDNLKVAVRSTKKLCAVMLDTVGPELQVINKSEKAITLKADGLVTLTPNQDQEASSEVLPINFNGLAKAVKKGDTIFVGQYLFTGSETTSVWLEVDEVKGDDVICLSRNAATLAGSLFTLHSSQVHIDLPTLTEKDKEVISTWGVQNKIDFLSLSYCRHAEDVRQTREMLKKLGDLSQTQIFAKIENVEGLTHFDEILQEADGIILSRGNLGIDLPPEKVFLFQKAALYKCNMAGKPAVLTRVVDSMTDNLRPTRAEATDVANAVLDGSDAILLGAETLRGLYPVETISTVGRICAEAEKVFNQDLYFKKTVKYVGEPMTHLESIASSAVRAAIKVKASVIICFTSSGRAARLIAKYRPTMPVISVVIPRVKTNQLKWSFSGAFEARQSLIVRGLFPMLADPRHPAESTSATNESVLKVALDHGKHAGVIKSHDRVVVCQKVGDASVVKIIELED | 50 | 6.68 | 340 | 6.68 |  |
| cPK2 (Arabidopsis thaliana) (protein, full-length cDNA in pET16b, N-terminal His tag (6x in Results, 5x in Methods), E. coli BLR21, Ni-NTA; primer begins MAMIEQ) MAMIEQRPKTKIVCTLGPASRSVPMVEKLLRAGMNVARFNFSHGSHEYHQETLDNLHQAMLNTGILCAVMLDTKGPEIRTGFLKDGKPIQLKQGQEITISTDYDLKGDENTICMSYKKLAVDVNPGMVILCADGTISLLVLSCDKENGTVRCRCENSAMLGERKNVNLPGVVVDLPTLTEKDKEDIMQWGVPNQIDMIALSFVRKGSDLVQVRKLLGKHAKNILLMSKVENQEGVANFDDILVNSDAFMIARGDLGMEIPIEKIFLAQKVMIYKCNIQGKPVVTATQMLESMIKSPRPTRAEATDVANAVLDGTDCVMLSGETAAGAYPELAVRTMAKICVEAESTLDYGDVFKRIMLYSPVPMSPLESLASSAVRTANSARATLIMVLTRGGSTARLVAKYRPGMPILSVVVPEIKTDFFDWSCSDESPARHSLIFRGLIPVLYAGSARASHDESTEEAIEFATQYGKEKELCKTGDSVVALLRVGNASVIKILTVK | 760 | 3.05 | 30 | 3.05 |  |
| cPK4 (Arabidopsis thaliana) (protein, full-length cDNA in pET16b, N-terminal His tag (6x in Results, 5x in Methods), E. coli BLR21, Ni-NTA; primer begins MHSSHL) MHSSHLLLEEPIRMTSILEPSKSSFFPALTKIVGTLGPKSRSVEVIAGCLKAGMSVARFDFSWCDADYHQETLENLKIAVKSTKKLCAVMLDTVGPELQVINKTEKAISLKADGLVTLTPSQDQEASSEVLPINFDGLAKAVKKGDTIFVGQYLFTGSETTSVWLEVEEVKGDDVICISRNAATLGGPLFTLHVSQVHIDMPTLTEKDKEVISTWGVQNKIDFLSLSYCRHAEDVRQARELLNSCGDLSQTQIFAKIENEEGLTHFDEILQEADGIILSRGNLGIDLPPEKVFLFQKAALYKCNMAGKPAVLTRVVDSMTDNLRPTRAEATDVANAVLDGSDAILLGAETLRGLYPVETISTVGRICCEAEKVFNQDLFFKKTVKYVGEPMTHLESIASSAVRAAIKVKASVIICFTSSGRAARLIAKYRPTMPVLSVVIPRLTTNQLKWSFSGAFEARQSLIVRGLFPMLADPRHPAESTSATNESVLKVALDHGKQAGVIKSHDRVVVCQKVGDASVVKIIELED | 170 | 4.0 | 70 | 4.0 |  |
